Experimental findings from patent US20160130315A1 (AJOU UNIVERSITY INDUSTRY ACADEMIC COOPERATION FOUNDATION, published 2016) are described below.

For this test, the target named is T1, Fc (human, UniProt P01857-1 104-330 = IgG part, limits assumed).
T1 construct: domain: Fc (hinge-CH2-CH3); Control without TPP; also called control group Fc; antibody heavy-chain constant region
The test is described as follows: FACS on cells carrying neuropilin-1 and -2.

B1: neuropilin-2 expressed on cell surface (receptor, human, UniProt O60462 21-931, looked up)
chain: RGQPDPPCGGRLNSKDAGYITSPGYPQDYPSHQNCEWIVYAPEPNQKIVLNFNPHFEIEKHDCKYDFIEIRDGDSESADLLGKHCGNIAPPTIISSGSMLYIKFTSDYARQGAGFSLRYEIFKTGSEDCSKNFTSPNGTIESPGFPEKYPHNLDCTFTILAKPKMEIILQFLIFDLEHDPLQVGEGDCKYDWLDIWDGIPHVGPLIGKYCGTKTPSELRSSTGILSLTFHTDMAVAKDGFSARYYLVHQEPLENFQCNVPLGMESGRIANEQISASSTYSDGRWTPQQSRLHGDDNGWTPNLDSNKEYLQVDLRFLTMLTAIATQGAISRETQNGYYVKSYKLEVSTNGEDWMVYRHGKNHKVFQANNDATEVVLNKLHAPLLTRFVRIRPQTWHSGIALRLELFGCRVTDAPCSNMLGMLSGLIADSQISASSTQEYLWSPSAARLVSSRSGWFPRIPQAQPGEEWLQVDLGTPKTVKGVIIQGARGGDSITAVEARAFVRKFKVSYSLNGKDWEYIQDPRTQQPKLFEGNMHYDTPDIRRFDPIPAQYVRVYPERWSPAGIGMRLEVLGCDWTDSKPTVETLGPTVKSEETTTPYPTEEEATECGENCSFEDDKDLQLPSGFNCNFDFLEEPCGWMYDHAKWLRTTWASSSSPNDRTFPDDRNFLRLQSDSQREGQYARLISPPVHLPRSPVCMEFQYQATGGRGVALQVVREASQESKLLWVIREDQGGEWKHGRIILPSYDMEYQIVFEGVIGKGRSGEIAIDDIRISTDVPLENCMEPISAFAGENFKVDIPEIHEREGYEDEIDDEYEVDWSNSSSATSGSGAPSTDKEKSWLYTLDPILITIIAMSSLGVLLGATCAGLLLYCTCSYSGLSSRSCTTLENYNFELYDGLKHKVKMNHQKCCSEA
notes: whole, on cells; Endogenous expression; the same cells also carry neuropilin-1; also called NRP2
Take B1: the binding result is recorded as “no binding (tested: 1 µM)”.
